The values that follow come from publication PMC9692665 (2022).

The target in the test is Echovirus 3 (E3) mature full (F-) particle, genotype HNWY-01 strain (Echovirus 3 (genotype HNWY-01 strain)). In words: SPR. On the technique in general: Surface plasmon resonance follows binding to a sensor surface in real time, without labels.

B1: monoclonal antibody 6D10 IgG (antibody, V domains shown)
VH: EVQLQQSGPELARPWASVKISCQAFYTFSNYGMQWVKQSPGQGLEWIGPFYPGNADTSYNQKFKGKATLTADKSSSTAYMQFSSLTSEDSAVYYCARVVATTDFDYWGQGTTVTVSS
VL: not shown
By koff is commonly meant a measure of how fast the partners let go of each other. The low end stands for a long-lived complex, the high end for a short-lived complex. B1 returned a koff of 5.1e-05 s⁻¹.
